The target in experiment [1] is Microtubule polymerized from MAP-free bovine brain tubulin (GMPCPP- and taxol-stabilized, with biotinylated ends) (bovine) (UniProt Q6B856). Briefly: optical trapping (single-filament interaction forces); as a1 (perpendicular, vertical movement) in CB with a total of 20 mM magnesium (18 mM MgCl2 added); 36 filament pairs.
For experiment [2] the target is unchanged. Put plainly: optical trapping (single-filament interaction forces); as a1 (perpendicular, vertical movement) in CB with 0.1% (w/v) Triton-X 100; 38 filament pairs.
Experiment [3] has the same target. Briefly: optical trapping (single-filament interaction forces); one vimentin IF and one microtubule each held between a pair of streptavidin beads; crossed perpendicularly, IF moved vertically (y-direction) at 0.55 μm/s; pure CB (1 mM EGTA, 2 mM MgCl2, 25 mM PIPES, 60 mM KCl, 2 mM sodium phosphate, pH 7.5, 0.01 mM taxol, oxygen scavenger, 20 mM DTT); 57 filament pairs.

Experiment [4] shares this target. Put plainly: optical trapping (single-filament interaction forces); pure CB; perpendicular configuration, IF moved horizontally (x-direction) along the microtubule at 0.55 μm/s; 43 filament pairs.
For experiment [5] the target is unchanged. Put plainly: optical trapping (single-filament interaction forces); pure CB; microtubule turned by 45°, IF moved vertically; 49 filament pairs.

Chain of UniProt Q6B856 (Q6B856 whole entry, looked up): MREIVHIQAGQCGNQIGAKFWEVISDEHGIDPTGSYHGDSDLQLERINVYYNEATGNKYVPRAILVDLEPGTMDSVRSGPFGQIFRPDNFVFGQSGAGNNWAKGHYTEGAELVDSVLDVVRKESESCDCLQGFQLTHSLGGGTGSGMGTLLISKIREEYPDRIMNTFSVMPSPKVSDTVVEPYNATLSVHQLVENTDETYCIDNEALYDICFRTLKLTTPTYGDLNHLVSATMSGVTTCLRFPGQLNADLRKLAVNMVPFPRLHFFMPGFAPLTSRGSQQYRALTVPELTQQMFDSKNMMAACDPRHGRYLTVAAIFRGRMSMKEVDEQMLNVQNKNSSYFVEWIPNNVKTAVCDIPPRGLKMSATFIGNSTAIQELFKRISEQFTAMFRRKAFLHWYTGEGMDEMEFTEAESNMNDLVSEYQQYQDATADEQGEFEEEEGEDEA

For the substance “Vimentin intermediate filament, assembled from vimentin C328N with two additional glycines and one additional cysteine at the C-terminus (natural protein)”, the effective binding rate r b,eff (interactions larger than 1 pN per unbound time) in experiment [1] amounted to 0.013 s⁻¹; in experiment [2] it was 0.0056 s⁻¹; in experiment [3], 0.011 s⁻¹; in experiment [4], 0.024 s⁻¹; in experiment [5], 0.016 s⁻¹. In experiment [3] (scale: per pair of vimentin unit-length filament and tubulin dimer), this substance yielded a probability of binding p IF-MT per pair of vimentin unit-length filament and tubulin dimer of 0.00061.

(Values after publication PMC8213705.)
